The values that follow are results of earlier work, collected in patent publication US20250009916A1, “COMBINATION THERAPY FOR TREATING LUNG CANCER” (Novartis AG, priority 2021, published 2025).

For data set [1] the following is noted: cited from earlier work.
The next data set deals with SCLC. The following applies: cited from earlier work.
For data set [2] the following is noted: cited from earlier work. This is another data set of the same source.
For another data set, the system named is advanced solid tumors. The following applies: cited from earlier work.
The test system of data set [3] is ES-SCLC. The conditions noted are these: ES-SCLC patients, first-line, IMPower133; cited from earlier work.
For data set [4], the system named is ES-SCLC. The conditions noted are these: ES-SCLC patients, durvalumab arm, CASPIAN; cited from earlier work.
The conditions of data set [5]: in vivo; cited from earlier work.
For data set [6] the following is noted: 100 mCi dose; patients pretreated, with risk factors or abnormal renal and bone marrow function; cited from earlier work.
The next data set relates to GEP-NET. The following applies: cited from earlier work.
Setting [7] is: 17 SCLC patients, plus cisplatin/carboplatin and etoposide Q3W.
Where [8] appears, read: 200-mg fixed dose cohort, evaluable n=13.
Setting [9] is: 4 doses of 7.4 GBq/200 mCi every 8 weeks, GEP-NET patients.

Read-outs that look alike come from different tables or passages of the source.

On to “tislelizumab: anti-PD-1 monoclonal antibody (Beigene), heavy chain SEQ ID NO: 1, light chain SEQ ID NO: 5”, for which the serum exposure entry in data set [1] (200-mg dose) was “fell between serum exposure observed after 2 mg/kg and 5 mg/kg doses”. Also, the CL result in data set [1] (Phase Ia) is “independent of body weight, ethnicity, and gender”. Further, in the data set with SCLC (setting [7]), the ORR was 77%, the “median OS” value is given as 15.6 months and the “median PFS” value is 6.9 months. In the data set on SCLC (tislelizumab 200 mg with platinum-based chemotherapy, including SCLC group), the antitumor activity entry was “Encouraging antitumor activity”. Also, the tolerability entry with SCLC (tislelizumab 200 mg with platinum-based chemotherapy) is given as “generally well tolerated”. The “rates of treatment-related adverse events and serious adverse events across regimens” value in data set [2] (2 mg/kg and 5 mg/kg, once every 2 weeks and once every 3 weeks) is reported as “comparable”. The “treatment-related adverse events versus body-weight-based cohorts” value in data set [2] (200-mg fixed dose cohort, Phase Ia Part 3) is recorded as “no unexpected treatment-related adverse events”. In data set [2] (setting [8]), the “patients with BOR of partial response (PR)” value was 23%, the “patients with BOR of progressive disease (PD)” value was 46% and the “patients with BOR of stable disease” value is listed as 31%. Further, the “safety signals in combination with standard-of-care chemotherapies” value with advanced solid tumors (first-line lung cancer) is on record as “did not lead to new safety signals”. In addition, in the data set on advanced solid tumors (monotherapy or combined with platinum-based chemotherapy), the safety profile result was “manageable safety profile”.

As to “atezolizumab: immune checkpoint inhibitor antibody (Roche)”, the PFS in the data set with ES-SCLC [3] is on record as 5.2 months.

Turning to durvalumab: PD-L1 inhibitor, the PFS in the data set with ES-SCLC [4] is listed as 5.1 months.

Take “Lutetium (^177Lu) oxodotreotide [[^177Lu] Lu-DOTA-TATE]”: in data set [5], the elimination route entry is given as “mainly via the renal route”, the “interaction with drug transporters” value is recorded as “does not interact with drug transporters” and the metabolization result was “very low (if any)”. In addition, in data set [6], the tolerability entry was “favorable tolerability”. Moreover, in the data set on GEP-NET (setting [9]), the “progression free survival and quality of life with approved regimen” value was “significant improvement of progression free survival (PFS) and quality of life”; the “safety of approved regimen” value is reported as “safe”. In addition, the median overall survival in the data set with GEP-NET (GEP-NET patients, phase 3 NETTER-1) is given as 48 months. Also, the “safety of additional doses exceeding 800 mCi cumulative dose” value with GEP-NET (literature) is given as “without additional safety signals”.
